Data published in PMC6111544, “Development of a Novel Q-body Using an In Vivo Site-Specific Unnatural Amino Acid Incorporation System” (Sensors (Basel, Switzerland), 2018).
Like-named read-outs stand apart in the source and are kept apart here.

T1: Nef protein (HIV-1 NL43), wild type (HIV-1 NL4-3 (NL43), strain)
T1 chain: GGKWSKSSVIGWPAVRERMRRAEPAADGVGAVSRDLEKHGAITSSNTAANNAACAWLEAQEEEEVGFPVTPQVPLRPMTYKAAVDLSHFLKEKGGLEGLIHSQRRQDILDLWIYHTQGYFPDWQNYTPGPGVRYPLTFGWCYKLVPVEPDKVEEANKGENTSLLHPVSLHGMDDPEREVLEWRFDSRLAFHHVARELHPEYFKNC


Experiments:
[1] = biological target: T1, Nef protein (HIV-1 NL43), wild type
[2] = biological target: T1, Nef protein (HIV-1 NL43), wild type; experiment: far-Western, overlay or dot blot; Western blotting: Nef wt and Nef Δ2-11 resolved by SDS-PAGE, transferred to PVDF, probed with the anti-Nef antibody, detected with anti-streptavidin IgG-HRP; anti-His-tag antibody as control; conditions: both partners purified

| Binder | binding result [1] | binding result [2] |
| --- | --- | --- |
| anti-Nef (antibody, V domains shown) VH: QVQLQQSGAELVKPGASVKLSCTASGFNIKDTYMHWVKQRPEQGLEWIGRIDPANGNTKYDPKFQGKATITADTSSNTAYLQLSSLTSEDTAVYYCASYYGIYWGQGTTLTVSS VL: DIKMTQSPSSLSASLGERVSLTCRASQEISGYLSWLQQKPDGTIKRLIYAVSTLDSGVPKRFSGSRSGSDYSLTISSLESEDFADYYCLQYATYPLTFGAGTKLELK | binds | – |
| anti-Nef antibody (single-chain variable fragment for which the antigen is HIV Nef protein) (scFv, V domains shown, scFv isolated in vitro from a constructed mouse antibody library; Section 2.4 describes expression in E. coli MV1184 and purification on an IgG-conjugated column for the antibody vectors; also called wt anti-Nef antibody; scFv) VH: EVKLVESGAELVRPGASVKLSCTASGFNIKDDYMHWVKQRPEQGLEWIGWIDPENGDTEYASKFQGKATITADTSSNTAYLQLSSLTSEDTAVYYCTTRDVWGAGTTVTVMA VL: DIKMTQSPSSLSASLGERVSLTCRASQEISGYLSWLQQKPDGTIKRLIYAVSTLDSGVPKRFSGSRSGSDYSLTISSLESEDFADYYCLQYATYPLTFGAGTKLELK | – | binds |
